Measurements taken from patent US20140274782A1, “AFFINITY REAGENTS AND METHODS FOR DETECTION, PURIFICATION, AND PROTEOMIC ANALYSIS OF METHYLATED PROTEINS” (The Board of Trustees of the Leland Stanford Junior …, priority 2013, published 2014).

B1: RCC1 (protein, UniProt P18754 2-421, looked up)
Regulator of chromosome …: SPKRIAKRRSPPADAIPKSKKVKVSHRSHSTEPGLVLTLGQGDVGQLGLGENVMERKKPALVSIPEDVVQAEAGGMHTVCLSKSGQVYSFGCNDEGALGRDTSVEGSEMVPGKVELQEKVVQVSAGDSHTAALTDDGRVFLWGSFRDNNGVIGLLEPMKKSMVPVQVQLDVPVVKVASGNDHLVMLTADGDLYTLGCGEQGQLGRVPELFANRGGRQGLERLLVPKCVMLKSRGSRGHVRFQDAFCGAYFTFAISHEGHVYGFGLSNYHQLGTPGTESCFIPQNLTSFKNSTKSWVGFSGGQHHTVCMDSEGKAYSLGRAEYGRLGLGEGAEEKSIPTLISRLPAVSSVACGASVGYAVTKDGRVFAWGMGTNYQLGTGQDEDAWSPVEMMGKQLENRVVLSVSSGGQHTVLLVKDKEQS
B2: SRP9 (protein, UniProt P49458 2-86, looked up)
Signal recognition particle 9 …: PQYQTWEEFSRAAEKLYLADPMKARVVLKYRHSDGNLCVKVTDDLVCLVYKTDQAQDVKKIEKFHSQLMRLMVAKEARNVTMETE
B3: PPP1CB (protein, UniProt P62140 2-327, looked up)
Serine/threonine-protein …: ADGELNVDSLITRLLEVRGCRPGKIVQMTEAEVRGLCIKSREIFLSQPILLELEAPLKICGDIHGQYTDLLRLFEYGGFPPEANYLFLGDYVDRGKQSLETICLLLAYKIKYPENFFLLRGNHECASINRIYGFYDECKRRFNIKLWKTFTDCFNCLPIAAIVDEKIFCCHGGLSPDLQSMEQIRRIMRPTDVPDTGLLCDLLWSDPDKDVQGWGENDRGVSFTFGADVVSKFLNRHDLDLICRAHQVVEDGYEFFAKRQLVTLFSAPNYCGEFDNAGGMMSVDETLMCSFQILKPSEKKAKYQYGGLNSGRPVTPPRTANPPKKR
B4: CNN3 (protein, UniProt Q15417 1-329, looked up)
Calponin-3: MTHFNKGPSYGLSAEVKNKIASKYDHQAEEDLRNWIEEVTGMSIGPNFQLGLKDGIILCELINKLQPGSVKKVNESSLNWPQLENIGNFIKAIQAYGMKPHDIFEANDLFENGNMTQVQTTLVALAGLAKTKGFHTTIDIGVKYAEKQTRRFDEGKLKAGQSVIGLQMGTNKCASQAGMTAYGTRRHLYDPKMQTDKPFDQTTISLQMGTNKGASQAGMLAPGTRRDIYDQKLTLQPVDNSTISLQMGTNKVASQKGMSVYGLGRQVYDPKYCAAPTEPVIHNGSQGTGTNGSEISDSDYQAEYPDEYHGEYQDDYPRDYQYSDQGIDY
B5: SAFB (protein, UniProt Q15424 2-915, looked up)
Scaffold attachment factor B1: AETLSGLGDSGAAGAAALSSASSETGTRRLSDLRVIDLRAELRKRNVDSSGNKSVLMERLKKAIEDEGGNPDEIEITSEGNKKTSKRSSKGRKPEEEGVEDNGLEENSGDGQEDVETSLENLQDIDIMDISVLDEAEIDNGSVADCVEDDDADNLQESLSDSRELVEGEMKELPEQLQEHAIEDKETINNLDTSSSDFTILQEIEEPSLEPENEKILDILGETCKSEPVKEESSELEQPFAQDTSSVGPDRKLAEEEDLFDSAHPEEGDLDLASESTAHAQSSKADSLLAVVKREPAEQPGDGERTDCEPVGLEPAVEQSSAASELAEASSEELAEAPTEAPSPEARDSKEDGRKFDFDACNEVPPAPKESSTSEGADQKMSSPEDDSDTKRLSKEEKGRSSCGRNFWVSGLSSTTRATDLKNLFSKYGKVVGAKVVTNARSPGARCYGFVTMSTAEEATKCINHLHKTELHGKMISVEKAKNEPVGKKTSDKRDSDGKKEKSSNSDRSTNLKRDDKCDRKDDAKKGDDGSGEKSKDQDDQKPGPSERSRATKSGSRGTERTVVMDKSKGVPVISVKTSGSKERASKSQDRKSASREKRSVVSFDKVKEPRKSRDSESHSRVRERSEREQRMQAQWEREERERLEIARERLAFQRQRLERERMERERLERERMHVEHERRREQERIHREREELRRQQELRYEQERRPAVRRPYDLDRRDDAYWPEAKRAALDERYHSDFNRQDRFHDFDHRDRGRYPDHSVDRREGSRSMMGEREGQHYPERHGGPERHGRDSRDGWGGYGSDKRMSEGRGLPPPPRRDWGDHGRREDDRSWQGTADGGMMDRDHKRWQGGERSMSGHSGPGHMMNRGGMSGRGSFAPGGASRGHPIPHGGMQGGFGGQSRGSRPSDARFTRRY

Key:
[1] = test system: 3×MBT domain of L3MBTL1; test: Triple SILAC pull-down, 3xMBT/3xMBTD355N ratio (cytoplasmic, nuclear and chromatin fractions of 293T cells); format: binding, human; settings: SILAC ratio, pull-down 3xMBT vs 3xMBTD355N; for 3xMBT/D355N UNC Heavy: experiment with UNC0638 in heavy SILAC media; for 3xMBT/D355N UNC Light: experiment with UNC0638 in light SILAC media;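 for all read-outs here: proteins quantified with MaxQuant, requiring at least two unique peptides and quantification in both label directions, normalized to the mean of proteins from a digested loading control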
[2] = target: T1, G9a and GLP (Homo sapiens, UniProt Q96KQ7+Q9H9B1); test: Triple SILAC pull-down after UNC0638 treatment of 293T cells, DMSO/UNC0638 ratio of protein captured by 3×MBT; format: cell-based; parameters: endogenous in cells; host or cells: HEK 293T; settings: for Relative to UNC0638 UNC Heavy / Relative to UNC0638 UNC Light: SILAC ratio DMSO/UNC0638 of protein pulled down with 3xMBT; for Relative to UNC0638 UNC Heavy: UNC0638 in heavy SILAC media; for Relative to UNC0638 UNC Light: UNC0638 in light SILAC media; for Relative to UNC0638 Average: average of UNC Light and UNC Heavy experiments;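 for all read-outs here: mass spectrometry (Q-Exactive) SILAC quantitation, DMSO/UNC0638 ratio computed after subtracting 3×MBTD355N mutant pull-down background, only proteins with at least twofold 3×MBT over mutant signal considered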
T1 sequence (Q96KQ7 2-1210 limits assumed): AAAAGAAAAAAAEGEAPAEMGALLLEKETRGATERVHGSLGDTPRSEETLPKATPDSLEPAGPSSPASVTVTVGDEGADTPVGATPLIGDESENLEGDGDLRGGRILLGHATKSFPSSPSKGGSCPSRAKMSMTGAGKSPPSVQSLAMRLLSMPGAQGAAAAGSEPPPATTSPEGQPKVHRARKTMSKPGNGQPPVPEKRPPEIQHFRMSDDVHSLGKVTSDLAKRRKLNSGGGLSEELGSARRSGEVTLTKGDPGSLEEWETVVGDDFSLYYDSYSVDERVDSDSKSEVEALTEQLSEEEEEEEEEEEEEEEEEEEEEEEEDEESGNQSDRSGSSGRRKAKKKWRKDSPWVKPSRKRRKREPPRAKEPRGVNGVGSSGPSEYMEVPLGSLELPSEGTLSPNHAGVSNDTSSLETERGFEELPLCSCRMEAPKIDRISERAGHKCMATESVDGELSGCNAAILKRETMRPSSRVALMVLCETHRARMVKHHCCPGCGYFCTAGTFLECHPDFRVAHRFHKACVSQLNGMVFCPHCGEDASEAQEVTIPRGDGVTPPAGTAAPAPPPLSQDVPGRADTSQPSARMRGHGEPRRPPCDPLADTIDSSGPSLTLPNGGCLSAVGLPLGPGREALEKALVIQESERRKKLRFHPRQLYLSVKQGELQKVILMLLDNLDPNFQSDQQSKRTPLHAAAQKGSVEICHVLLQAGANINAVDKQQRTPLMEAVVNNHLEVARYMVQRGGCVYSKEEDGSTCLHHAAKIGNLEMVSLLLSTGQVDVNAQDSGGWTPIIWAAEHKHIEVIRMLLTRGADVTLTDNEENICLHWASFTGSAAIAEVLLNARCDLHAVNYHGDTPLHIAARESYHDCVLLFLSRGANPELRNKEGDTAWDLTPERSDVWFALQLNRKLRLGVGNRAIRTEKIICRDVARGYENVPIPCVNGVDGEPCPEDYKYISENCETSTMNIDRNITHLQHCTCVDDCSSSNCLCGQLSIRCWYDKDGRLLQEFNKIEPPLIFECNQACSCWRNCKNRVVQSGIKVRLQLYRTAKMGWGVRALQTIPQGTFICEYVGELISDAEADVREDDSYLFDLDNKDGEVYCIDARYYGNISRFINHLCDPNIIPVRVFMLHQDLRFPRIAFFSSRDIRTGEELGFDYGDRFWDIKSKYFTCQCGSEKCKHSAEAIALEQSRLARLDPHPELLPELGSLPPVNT
T1 sequence (Q9H9B1 2-1298 limits assumed): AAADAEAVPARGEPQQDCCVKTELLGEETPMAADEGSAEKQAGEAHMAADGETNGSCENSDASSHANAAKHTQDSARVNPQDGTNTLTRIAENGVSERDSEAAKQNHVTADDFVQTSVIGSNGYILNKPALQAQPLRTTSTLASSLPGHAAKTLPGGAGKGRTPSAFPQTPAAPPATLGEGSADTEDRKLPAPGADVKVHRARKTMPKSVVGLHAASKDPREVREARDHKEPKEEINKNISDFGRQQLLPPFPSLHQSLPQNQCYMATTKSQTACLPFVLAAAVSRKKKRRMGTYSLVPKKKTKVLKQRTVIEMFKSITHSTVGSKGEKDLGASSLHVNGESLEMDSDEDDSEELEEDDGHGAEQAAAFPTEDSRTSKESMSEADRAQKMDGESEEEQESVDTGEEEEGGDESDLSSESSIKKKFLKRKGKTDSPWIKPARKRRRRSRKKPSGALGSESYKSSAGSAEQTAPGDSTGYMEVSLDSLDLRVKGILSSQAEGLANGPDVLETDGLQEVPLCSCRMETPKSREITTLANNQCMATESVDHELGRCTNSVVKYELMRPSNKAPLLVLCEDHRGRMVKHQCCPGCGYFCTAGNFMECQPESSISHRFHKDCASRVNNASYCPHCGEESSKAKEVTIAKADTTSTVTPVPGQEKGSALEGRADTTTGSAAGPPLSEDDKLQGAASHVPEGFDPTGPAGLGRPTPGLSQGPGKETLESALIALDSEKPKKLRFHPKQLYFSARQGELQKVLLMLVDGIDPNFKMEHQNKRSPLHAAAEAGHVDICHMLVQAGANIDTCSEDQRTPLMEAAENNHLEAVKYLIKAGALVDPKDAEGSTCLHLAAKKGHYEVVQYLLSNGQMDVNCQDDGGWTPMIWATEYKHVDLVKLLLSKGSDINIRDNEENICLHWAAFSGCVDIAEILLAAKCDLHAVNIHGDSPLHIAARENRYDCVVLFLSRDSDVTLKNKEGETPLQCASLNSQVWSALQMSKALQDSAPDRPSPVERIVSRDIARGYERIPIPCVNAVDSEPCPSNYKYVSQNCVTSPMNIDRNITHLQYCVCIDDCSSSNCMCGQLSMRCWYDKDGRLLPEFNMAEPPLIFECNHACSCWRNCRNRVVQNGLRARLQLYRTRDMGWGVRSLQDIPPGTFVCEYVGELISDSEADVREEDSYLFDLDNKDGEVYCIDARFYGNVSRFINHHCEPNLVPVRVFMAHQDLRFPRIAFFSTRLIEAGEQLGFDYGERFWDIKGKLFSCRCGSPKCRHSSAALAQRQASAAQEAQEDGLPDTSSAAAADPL

Molecule | 3xMBT/D355N UNC Heavy [1] | 3xMBT/D355N UNC Light [1] | Relative to UNC0638 UNC Heavy [2] | Relative to UNC0638 UNC Light [2] | Relative to UNC0638 Average [2]
B1 | 2.15 log base 2 | 2.25 log base 2 | 0.18 log base 2 | 0.29 log base 2 | 0.24 log base 2
B2 | 1.88 log base 2 | 1.52 log base 2 | 0.46 log base 2 | 0.01 log base 2 | 0.23 log base 2
B3 | 2.35 log base 2 | 2.55 log base 2 | 0.28 log base 2 | 0.18 log base 2 | 0.23 log base 2
B4 | 2.36 log base 2 | 2.35 log base 2 | 0.61 log base 2 | −0.15 log base 2 | 0.23 log base 2
B5 | 2.38 log base 2 | 2.76 log base 2 | 0.11 log base 2 | 0.35 log base 2 | 0.23 log base 2
